Test [1] deals with PCNA K164C, labeled with Alexa Fluor 546 (yeast) (UniProt P15873). In words: cross-linking; limiting PCNA: 50 nM AF546-PCNA K164C loaded on nicked pUC19 (15 nM) by full-length RFC (15 nM), CAF-1 titrated 0-1 μM, 100-110 mM NaCl; 0.2% glutaraldehyde; nuclease digestion; SDS-PAGE, PCNA fluorescence, band intensities; affinities estimated.
Test [2] deals with Histones H3–H4 (H3 C110A-H4 E63C), Alexa488-labeled (Xenopus laevis). In words: fluorescence polarisation; 10 nM Alexa488-labeled H3–H4 with increasing CAF-1, Polϵ, Polδ or RPA; 25 mM TRIS pH 7.5, 300 mM NaCl, 5% glycerol, 1 mM EDTA, 0.01% IGEPAL, 0.01% CHAPS, 1 mM DTT; one site binding curve. (Fluorescence polarisation rises when a labelled molecule tumbles more slowly, as on binding a larger partner.)

Test [3] has as its target PCNA (Saccharomyces cerevisiae) (UniProt P15873). The conditions noted are these: cited from earlier work.
For test [4], the target named is Proliferating Cell Nuclear Antigen (PCNA), wild type (yeast) (UniProt P15873).
Sequence of Proliferating Cell Nuclear Antigen (PCNA), wild type (yeast) (P15873 whole entry): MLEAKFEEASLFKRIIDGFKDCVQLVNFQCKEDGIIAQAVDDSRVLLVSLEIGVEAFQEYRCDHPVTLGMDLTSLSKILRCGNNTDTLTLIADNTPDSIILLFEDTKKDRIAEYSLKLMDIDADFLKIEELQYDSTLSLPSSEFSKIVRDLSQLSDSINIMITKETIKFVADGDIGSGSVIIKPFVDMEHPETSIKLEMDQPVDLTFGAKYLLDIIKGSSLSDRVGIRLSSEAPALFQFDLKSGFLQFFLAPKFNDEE
The target in test [5] is PCNA (Saccharomyces cerevisiae) (UniProt P15873). The note with it: cited from earlier work. This is another data set of the same source.
Sequence of PCNA (Saccharomyces cerevisiae) (P15873 whole entry): as above

Like-named read-outs stand apart in the source and are kept apart here.

This is an account of results in PMC10164577.

One may read the Kd as a measure of binding affinity in units of concentration.

Sequence of DNA polymerase epsilon (P21951 whole entry): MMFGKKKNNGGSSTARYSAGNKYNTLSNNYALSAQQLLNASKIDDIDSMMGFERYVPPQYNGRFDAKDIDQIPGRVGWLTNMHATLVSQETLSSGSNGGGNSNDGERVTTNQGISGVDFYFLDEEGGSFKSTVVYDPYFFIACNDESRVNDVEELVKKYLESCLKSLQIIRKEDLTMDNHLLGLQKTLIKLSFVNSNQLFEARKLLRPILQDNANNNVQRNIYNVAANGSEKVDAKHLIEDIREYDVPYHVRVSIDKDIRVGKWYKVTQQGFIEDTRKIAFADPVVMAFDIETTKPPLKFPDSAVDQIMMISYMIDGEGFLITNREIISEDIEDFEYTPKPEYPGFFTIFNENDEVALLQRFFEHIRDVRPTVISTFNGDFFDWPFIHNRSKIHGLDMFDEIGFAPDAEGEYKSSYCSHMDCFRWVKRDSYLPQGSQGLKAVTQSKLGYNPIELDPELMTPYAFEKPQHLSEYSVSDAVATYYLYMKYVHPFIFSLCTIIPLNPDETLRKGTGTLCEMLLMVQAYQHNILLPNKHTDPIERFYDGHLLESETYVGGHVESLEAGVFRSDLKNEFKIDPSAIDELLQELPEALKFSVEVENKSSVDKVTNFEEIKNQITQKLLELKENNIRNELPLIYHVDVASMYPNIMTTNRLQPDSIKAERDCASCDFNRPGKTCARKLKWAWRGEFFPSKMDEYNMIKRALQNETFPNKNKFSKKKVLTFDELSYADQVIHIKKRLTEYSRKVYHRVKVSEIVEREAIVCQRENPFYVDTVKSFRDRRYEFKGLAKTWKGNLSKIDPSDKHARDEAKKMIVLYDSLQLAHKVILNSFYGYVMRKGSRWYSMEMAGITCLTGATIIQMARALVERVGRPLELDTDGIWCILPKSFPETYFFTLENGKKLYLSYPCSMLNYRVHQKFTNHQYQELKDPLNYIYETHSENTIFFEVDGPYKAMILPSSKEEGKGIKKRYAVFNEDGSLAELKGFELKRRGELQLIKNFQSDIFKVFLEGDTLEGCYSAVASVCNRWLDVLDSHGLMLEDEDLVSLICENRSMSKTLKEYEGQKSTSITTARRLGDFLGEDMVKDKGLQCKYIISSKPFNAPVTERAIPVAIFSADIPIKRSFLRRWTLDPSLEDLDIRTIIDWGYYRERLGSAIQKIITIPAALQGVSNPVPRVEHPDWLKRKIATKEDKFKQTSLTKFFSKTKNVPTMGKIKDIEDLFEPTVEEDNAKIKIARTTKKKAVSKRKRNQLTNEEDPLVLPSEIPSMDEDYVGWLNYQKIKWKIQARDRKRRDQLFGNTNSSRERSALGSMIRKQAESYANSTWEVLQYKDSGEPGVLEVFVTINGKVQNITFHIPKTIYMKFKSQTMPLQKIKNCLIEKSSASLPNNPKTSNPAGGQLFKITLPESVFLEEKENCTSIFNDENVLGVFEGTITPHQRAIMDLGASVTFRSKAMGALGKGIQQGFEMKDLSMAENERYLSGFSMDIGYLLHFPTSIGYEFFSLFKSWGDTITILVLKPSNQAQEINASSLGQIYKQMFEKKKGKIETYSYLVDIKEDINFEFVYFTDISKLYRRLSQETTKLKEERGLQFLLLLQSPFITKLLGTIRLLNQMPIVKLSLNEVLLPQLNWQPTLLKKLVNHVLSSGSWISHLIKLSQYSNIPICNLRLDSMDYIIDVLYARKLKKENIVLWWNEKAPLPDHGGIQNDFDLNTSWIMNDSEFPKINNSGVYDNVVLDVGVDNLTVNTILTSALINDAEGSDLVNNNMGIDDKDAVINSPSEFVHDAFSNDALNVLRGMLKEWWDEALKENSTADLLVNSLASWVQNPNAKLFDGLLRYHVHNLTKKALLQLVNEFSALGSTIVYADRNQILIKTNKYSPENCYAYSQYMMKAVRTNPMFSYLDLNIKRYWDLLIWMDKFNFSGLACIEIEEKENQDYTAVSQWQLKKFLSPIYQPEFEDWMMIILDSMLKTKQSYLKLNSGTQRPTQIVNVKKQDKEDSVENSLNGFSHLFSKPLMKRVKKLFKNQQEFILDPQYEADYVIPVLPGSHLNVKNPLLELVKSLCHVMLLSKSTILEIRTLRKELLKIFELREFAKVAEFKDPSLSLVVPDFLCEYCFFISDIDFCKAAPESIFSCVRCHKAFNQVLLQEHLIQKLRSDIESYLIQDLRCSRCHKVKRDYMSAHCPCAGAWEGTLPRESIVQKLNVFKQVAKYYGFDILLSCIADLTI
Sequence of DNA polymerase epsilon (P24482 whole entry, further chain): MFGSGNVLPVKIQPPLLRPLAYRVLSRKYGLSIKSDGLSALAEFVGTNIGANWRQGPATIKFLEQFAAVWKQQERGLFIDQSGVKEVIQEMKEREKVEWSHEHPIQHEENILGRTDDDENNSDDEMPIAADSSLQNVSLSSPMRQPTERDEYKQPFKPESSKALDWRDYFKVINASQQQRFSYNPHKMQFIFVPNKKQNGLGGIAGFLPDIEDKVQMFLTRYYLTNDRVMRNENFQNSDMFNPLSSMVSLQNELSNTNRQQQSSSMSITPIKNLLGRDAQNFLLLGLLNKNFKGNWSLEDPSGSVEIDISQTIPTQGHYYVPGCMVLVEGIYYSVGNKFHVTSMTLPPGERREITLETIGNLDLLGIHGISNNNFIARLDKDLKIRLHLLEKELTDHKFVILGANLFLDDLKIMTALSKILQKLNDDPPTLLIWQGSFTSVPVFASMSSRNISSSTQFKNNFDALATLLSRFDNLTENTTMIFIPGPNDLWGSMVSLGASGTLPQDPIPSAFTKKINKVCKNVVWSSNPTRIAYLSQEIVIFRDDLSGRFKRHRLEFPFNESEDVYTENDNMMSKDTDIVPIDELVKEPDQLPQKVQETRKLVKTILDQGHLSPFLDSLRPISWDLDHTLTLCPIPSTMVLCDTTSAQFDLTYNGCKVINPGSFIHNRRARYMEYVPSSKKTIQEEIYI
Sequence of DNA polymerase epsilon (P27344 whole entry, further chain): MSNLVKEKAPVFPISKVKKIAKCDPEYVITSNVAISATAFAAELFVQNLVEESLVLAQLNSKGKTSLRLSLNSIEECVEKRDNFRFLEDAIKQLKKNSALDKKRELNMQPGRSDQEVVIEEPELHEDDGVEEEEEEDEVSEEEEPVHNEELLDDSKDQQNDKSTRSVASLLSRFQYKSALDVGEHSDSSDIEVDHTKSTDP
Sequence of DNA polymerase epsilon (Q04603 whole entry, further chain): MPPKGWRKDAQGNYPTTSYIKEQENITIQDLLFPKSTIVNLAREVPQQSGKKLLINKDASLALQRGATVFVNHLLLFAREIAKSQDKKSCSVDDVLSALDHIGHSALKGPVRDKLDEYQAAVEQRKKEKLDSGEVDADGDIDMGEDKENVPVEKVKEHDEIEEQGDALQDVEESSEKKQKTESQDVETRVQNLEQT
Sequence of PCNA K164C, labeled with Alexa Fluor 546 (yeast) (P15873 whole entry K164C): as the sequence (P15873 whole entry) above, with K164C counted along it

In the case of “CAF-1_ΔAD mutant (acidic domain deleted) (from UniProt Q12495 1-606; Q04199 1-468; P13712 1-422) (complex)”, the dissociation constant Kd in test [1] was less than 50 nM.
For the substance “Chromatin Assembly Factor-1 (CAF-1), wild type (from UniProt Q12495 1-606; Q04199 1-468; P13712 1-422) (complex)”, the dissociation constant Kd in test [2] came to 1.1 nM.
With “DNA polymerase delta (from UniProt P15436)”, in test [3], the Kd is 13.7 nM.
DNA polymerase epsilon (Polϵ) (complex): the maximum leading-strand replication rate in pulse-chase with the yeast replisome (+RFC/PCNA, Polδ omitted) with 180 nM CAF-1 added; ∼1.09 kb/min without CAF-1 in test [4] amounted to 0.85 kb/min. Also, the Kd in test [2] is 28 nM.
In the case of “DNA polymerase epsilon (from UniProt P21951)”, in test [5], the Kd is 326 nM.
